Assay results reported in paper PMC4498904, “Mutagenesis Study Reveals the Rim of Catalytic Entry Site of HDAC4 and -5 as the Major Binding Surface of SMRT Corepressor” (PLoS ONE, 2015).

B1: KGC-HDAC5c (C-terminal portion of Kusabira Green protein fused with HDAC5c), wild type [human] / KGN-SRD3c (N-terminal portion of Kusabira Green protein fused with SRD3c) [human] (parent complex)
chain 1: LFTTGVVYDTFMLKHQCMCGNTHVHPEHAGRIQSIWSRLQETGLLSKCERIRGRKATLDEIQTVHSEYHTLLYGTSPLNRQKLDSKKLLGPISQKMYAVLPCGGIGVDSDTVWNEMHSSSAVRMAVGCLLELAFKVAAGELKNGFAIIRPPGHHAEESTAMGFCFFNSVAITAKLLQQKLNVGKVLIVDWDIHHGNGTQQAFYNDPSVLYISLHRYDNGNFFPGSGAPEEVGGGPGVGYNVNVAWTGGVDPPIGDVEYLTAFRTVVMPIAHEFSPDVVLVSAGFDAVEGHLSPLGGYSVTARCFGHLTRQLMTLAGGRVVLALEGGHDLTAICDASEACVSALLSVELQPLDEAVLQQKPNINAVATLEKVIEIQSKHWSCVQKFAAGLGRSLREAQAGETEEAETVS
chain 2: EGGMSVTQCSKEDGRSSSGPPHETAAPKRTYDMMEGRVGRAISSASIEGLMGRAIPPERHSPHHLKEQHHIRGSITQGIPRSYVEAQEDYLRREAKLLKREGTPPPPPPSRDLTEAYKTQALGPLKLKPAHEGLVATVKEAGRSIHEIPREELRHTPELPLAPRPLKEGSITQGTPLKYDTGASTTGSKKHDVRSLIGSPGRTFPPVHPLDVMADARALERACY
B2: KGC-HDAC4c (C-terminal portion of Kusabira Green protein fused with HDAC4c), wild type [human] / KGN-SRD3c (N-terminal portion of Kusabira Green protein fused with SRD3c) [human] (parent complex)
chain 1: PRFTTGLVYDTLMLKHQCTCGSSSSHPEHAGRIQSIWSRLQETGLRGKCECIRGRKATLEELQTVHSEAHTLLYGTNPLNRQKLDSKKLLGSLASVFVRLPCGGVGVDSDTIWNEVHSAGAARLAVGCVVELVFKVATGELKNGFAVVRPPGHHAEESTPMGFCYFNSVAVAAKLLQQRLSVSKILIVDWDVHHGNGTQQAFYSDPSVLYMSLHRYDDGNFFPGSGAPDEVGTGPGVGFNVNMAFTGGLDPPMGDAEYLAAFRTVVMPIASEFAPDVVLVSSGFDAVEGHPTPLGGYNLSARCFGYLTKQLMGLAGGRIVLALEGGHDLTAICDASEACVSALLGNELDPLPEKVLQQRPNANAVRSMEKVMEIHSKYWRCLQRTTSTAGRSLIEAQTCENEEAET
chain 2: B1 chain 2

Variants of: B1
Experiment: BiFC assay (fluorescence spectrophotometer); HEK293 cells; KGN-SRD3c (1 μg) and KGC-HDAC5c mutant (1 μg); 48 hours of transfection; whole cell lysates; parent: 9.3; read off a plot

Variant | response [RFU]
chain 1 G325V | ~4.1
chain 1 G197D | ~4
chain 1 H154R | ~4.9
chain 1 C164R | ~4.4
chain 1 G152E | ~4.1
chain 1 F222L | ~3.9
chain 1 G127E | ~3.7
chain 1 G326C | ~4
chain 1 F163S | ~5.8
chain 1 G219W | ~3.9
chain 1 P150L | ~3.8
chain 1 G295C | ~5
chain 1 S118P | ~3.9
chain 1 P151S | ~5.9
chain 1 N196D | ~3.7
chain 1 D110G | ~5.1
chain 1 G195C | ~3.9

Variants of: B2
Experiment: BiFC assay (fluorescence spectrophotometer); HEK293 cells; KGN-SRD3c (1 μg) and KGC-HDAC4c mutant (1 μg); 48 hours of transfection; whole cell lysates; parent: 8; read off a plot

Variant | response [RFU]
chain 1 F222L | ~4.1
chain 1 C164Y | ~4.1
chain 1 T111P | ~4.2
chain 1 H194R | ~3.9
chain 1 A155T | ~4.6
chain 1 G152E | ~3.9
chain 1 G195R | ~4.6
chain 1 N196S | ~4.2
chain 1 S118P | ~4.4
chain 1 D110Y | ~5.5
chain 1 P150H | ~4.2
chain 1 A125D | ~4.3
chain 1 G197R | ~6.8
chain 1 G219A | ~5.3
chain 1 F163S | ~4.5
chain 1 P151H | ~4.1
chain 1 H154Y | ~4.3
